Data set [1] deals with T1, SARS-CoV-2 nucleocapsid NTD WT (SARS-CoV-2 (Wuhan-Hu-1), UniProt P0DTC9 44-180). As to the kind of experiment: EMSA. The settings on record: protein: recombinant; tags: His6-Trx cleaved by TEV; one extra N-terminal G; hairpin with 22 nt 3' extension.
Data set [2] has as its target SARS-CoV-2 nucleocapsid NTD WT (SARS-CoV-2 (Wuhan-Hu-1), UniProt P0DTC9 44-180). In words: MST. The settings on record: protein: recombinant; tags: His6-Trx cleaved by TEV; one extra N-terminal G; label: 3'-Cy5; hairpin.
In data set [3] the target is T1, SARS-CoV-2 nucleocapsid NTD WT. As to the kind of experiment: MST. Conditions: protein: recombinant; tags: His6-Trx cleaved by TEV; one extra N-terminal G; label: 3'-Cy5; transiently folds as stem-loop.

From publication PMC11628620, “A core network in the SARS-CoV-2 nucleocapsid NTD mediates structural integrity and selective RNA-binding” come the findings set out here.

B1: SL4ext (structured_RNA)
RNA: GGUCUGUGUGGCUGUCACUCGGCUGCAUGCUUAGUGCACUCACGCAGUAUAAUUAAUAACUAAUUACUG
With B1, the binding result in data set [1] is on record as “binds”.
GGGUGUGGCUGUCACUCGGCUGCAUGCUUAGUGCACUCACGCCC (structured_RNA) [SL4 (3'-Cy5)]: in data set [2], the Kd (as a rule, the equilibrium constant for the complex coming apart) came to 14.1 ± 2.23 µM.
GGAUAAUUAAUAACUAAUUACU (ssRNA) [Ext (3'-Cy5)]: the Kd in data set [3] amounted to 0.334 ± 0.047 µM.
